Assay results reported in EP4680648A1 (dated 2026).
Where a chain is given by its changes, count along the chain named. Blank lines part the entries; values can stand above or below the binder they belong to.

Tests used:
[1] = target: human HER3 expressed on CHO-S cells (CHO-hHER3 cells) (human, UniProt P21860 20-643); assay: flow cytometry on CHO-hHER3 cells
[2] = target: T1, dog HER3 expressed on CHO-S cells (CHO-dHER3 cells) (dog, UniProt P21860 20-1342 (human entry)); assay: flow cytometry on CHO-dHER3 cells
T1 chain: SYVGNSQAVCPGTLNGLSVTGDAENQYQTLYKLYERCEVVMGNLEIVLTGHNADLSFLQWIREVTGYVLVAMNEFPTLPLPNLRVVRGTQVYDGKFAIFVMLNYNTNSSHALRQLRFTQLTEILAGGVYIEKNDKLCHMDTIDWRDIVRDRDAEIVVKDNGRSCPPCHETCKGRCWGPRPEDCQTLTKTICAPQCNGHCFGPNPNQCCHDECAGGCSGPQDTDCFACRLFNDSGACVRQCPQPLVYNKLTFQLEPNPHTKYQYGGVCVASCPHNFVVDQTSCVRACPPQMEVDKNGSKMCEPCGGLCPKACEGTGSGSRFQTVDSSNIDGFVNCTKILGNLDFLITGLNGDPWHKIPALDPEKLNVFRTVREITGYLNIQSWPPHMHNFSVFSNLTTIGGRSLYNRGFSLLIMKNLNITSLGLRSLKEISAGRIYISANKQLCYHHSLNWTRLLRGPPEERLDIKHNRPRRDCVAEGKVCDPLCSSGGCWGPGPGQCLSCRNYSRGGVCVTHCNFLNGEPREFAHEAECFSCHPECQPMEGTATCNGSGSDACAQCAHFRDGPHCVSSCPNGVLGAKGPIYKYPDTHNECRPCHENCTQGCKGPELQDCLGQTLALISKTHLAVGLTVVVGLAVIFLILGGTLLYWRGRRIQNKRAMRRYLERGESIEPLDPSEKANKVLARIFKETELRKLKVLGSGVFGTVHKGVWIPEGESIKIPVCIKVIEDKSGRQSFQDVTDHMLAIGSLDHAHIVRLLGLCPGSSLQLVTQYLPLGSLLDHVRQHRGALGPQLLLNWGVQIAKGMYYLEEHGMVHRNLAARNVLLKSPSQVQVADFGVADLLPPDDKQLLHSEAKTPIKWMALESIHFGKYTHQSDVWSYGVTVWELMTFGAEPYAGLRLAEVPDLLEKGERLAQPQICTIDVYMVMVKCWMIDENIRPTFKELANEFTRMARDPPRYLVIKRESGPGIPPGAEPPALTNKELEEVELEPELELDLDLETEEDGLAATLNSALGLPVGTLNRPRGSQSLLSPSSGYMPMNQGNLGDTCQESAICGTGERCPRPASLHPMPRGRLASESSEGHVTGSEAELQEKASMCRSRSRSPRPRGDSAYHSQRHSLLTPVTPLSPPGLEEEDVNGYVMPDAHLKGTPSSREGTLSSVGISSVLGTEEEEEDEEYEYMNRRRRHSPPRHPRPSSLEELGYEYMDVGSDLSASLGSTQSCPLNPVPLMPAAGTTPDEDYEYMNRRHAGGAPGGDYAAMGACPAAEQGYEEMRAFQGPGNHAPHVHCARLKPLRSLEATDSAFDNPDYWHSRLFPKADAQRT

[3] = target: mouse HER3 expressed on CHO-S cells (CHO-mHER3 cells) (mouse, UniProt Q61526 20-641); assay: flow cytometry on CHO-mHER3 cells
Sequence of mouse HER3 expressed on CHO-S cells (CHO-mHER3 cells) (Q61526 20-641): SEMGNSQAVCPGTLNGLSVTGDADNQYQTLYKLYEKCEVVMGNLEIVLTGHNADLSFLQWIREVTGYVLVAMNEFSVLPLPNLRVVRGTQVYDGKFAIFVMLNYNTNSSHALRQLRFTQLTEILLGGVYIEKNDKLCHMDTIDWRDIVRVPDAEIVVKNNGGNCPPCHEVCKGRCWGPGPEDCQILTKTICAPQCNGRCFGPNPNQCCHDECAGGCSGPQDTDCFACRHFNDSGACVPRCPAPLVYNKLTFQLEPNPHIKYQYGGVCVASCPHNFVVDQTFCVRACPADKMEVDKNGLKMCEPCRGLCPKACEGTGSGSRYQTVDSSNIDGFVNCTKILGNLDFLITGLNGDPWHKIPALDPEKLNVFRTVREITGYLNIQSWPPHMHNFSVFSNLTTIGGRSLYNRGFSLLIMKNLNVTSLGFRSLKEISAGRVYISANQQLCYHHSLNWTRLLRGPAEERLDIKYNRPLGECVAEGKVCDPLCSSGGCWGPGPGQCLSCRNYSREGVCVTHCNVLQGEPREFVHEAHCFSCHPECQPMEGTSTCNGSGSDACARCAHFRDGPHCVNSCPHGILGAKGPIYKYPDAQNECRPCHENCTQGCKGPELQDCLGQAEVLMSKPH

[4] = target: T2, His-tagged human HER3 protein (hHER3, ACRO Biosystems Inc., Cat#: ER3-H5223) (human, UniProt P21860 20-643); assay: SPR (Biacore 8K), antibody captured on Protein A chip, His-tagged hHER3 as analyte
T2 construct: Bought protein; also called hHER3-His; not shown: His tag

[5] = target: T3, monkey (Macaca fascicularis) HER3 expressed on CHO-S cells (CHO-fasHER3 cells) (monkey (Macaca fascicularis), UniProt P21860 20-643 (human entry)); assay: flow cytometry on CHO-fasHER3 cells
T3 construct: also called monkey HER3
T3 chain: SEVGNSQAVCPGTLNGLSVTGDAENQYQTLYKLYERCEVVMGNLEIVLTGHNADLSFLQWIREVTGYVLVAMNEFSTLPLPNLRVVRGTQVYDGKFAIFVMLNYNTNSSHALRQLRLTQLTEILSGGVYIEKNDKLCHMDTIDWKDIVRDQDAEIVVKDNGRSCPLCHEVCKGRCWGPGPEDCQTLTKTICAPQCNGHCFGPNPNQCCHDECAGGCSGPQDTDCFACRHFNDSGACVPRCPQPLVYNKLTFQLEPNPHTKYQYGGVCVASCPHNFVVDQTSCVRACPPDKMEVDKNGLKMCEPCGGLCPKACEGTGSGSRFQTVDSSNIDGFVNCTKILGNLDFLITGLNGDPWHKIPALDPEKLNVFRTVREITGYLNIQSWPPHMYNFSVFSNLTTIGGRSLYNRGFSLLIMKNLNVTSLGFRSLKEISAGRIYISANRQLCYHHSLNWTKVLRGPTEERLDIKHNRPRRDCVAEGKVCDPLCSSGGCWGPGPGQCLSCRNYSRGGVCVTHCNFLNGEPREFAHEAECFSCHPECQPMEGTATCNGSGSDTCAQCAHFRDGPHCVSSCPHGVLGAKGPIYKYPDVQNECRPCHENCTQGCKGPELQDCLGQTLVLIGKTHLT

[6] = target: T2, His-tagged human HER3 protein (hHER3, …); assay: SPR (Biacore 8K), antibody captured on Protein A chip, His-tagged HER3 as analyte

binding result [1]: binds
binding result [2]: binds
binding result [4]: binds
binding result [5]: binds
B4: anti-HER3 antibody 1C5 (antibody, human IgG1, V domains shown)
VH: QVQLVESGGGVVQPGKSLRLSCAASGFTFSRSGMHWVRQAPGKGLEWVALISFDGSNKYYADSVKGRFTISRDNSKNTLNLQMNSLRAEDTAVYYCAKGGFGVVIYDAFDIWGHGTMVTVSS
VL: not shown
notes: common light chain

binding result [1]: binds
binding result [2]: binds
binding result [6]: binds
binding result [3]: binds
binding result [5]: binds
B5: anti-HER3 antibody 1D6 (antibody, human IgG1, V domains shown)
VH: EVQLVQSGPGLVKPSETLSLTCTVSGGSISSNNYYWAWIRQPPGKGLEWIGSLYYTGRAYYKSSLKSRVTISVDTSNDQFSLRLTSVTAADTAIYYCARHDCGNTCLNWFDRWGQGTLVTVSS
VL: not shown
notes: common light chain

Further lines, the binder ahead of its results:

B1: anti-HER3 antibody 3G6 (antibody, human IgG1, V domains shown)
VH: QVQLVQSGPVLVKPTETLTLTCTVSGFSLSNIRMGVSWIRQPPGKALEWLAHIFSNDDKSYSTSLKSRLTISKDTSKSQVVLTMTNVDPVDTATYYCTRMRYSGGPFDYWGQGTLVTVSS
VL: not shown
notes: common light chain
binding result [1]: binds
binding result [2]: binds
binding result [3]: binds
binding result [4]: binds
binding result [5]: binds

B2: anti-HER3 antibody 1B2 (antibody, V domains shown)
VH: B1 VH with G26T, I32A, T63P, S78T, V87M, T98S, T114S
VL: not shown
notes: common light chain
binding result [1]: binds
binding result [2]: binds
binding result [3]: binds
binding result [4]: binds
binding result [5]: binds

B3: anti-HER3 antibody 3E1 (antibody, human IgG1, V domains shown)
VH: B1 VH with Q1E, V12A, T63P, S67N, N86T, V87M, V90M, R101K
VL: not shown
notes: common light chain
binding result [1]: binds
binding result [2]: binds
binding result [3]: binds
binding result [4]: binds
binding result [5]: binds
